In publication PMC7717453, “A study of Rose Bengal against a 2-keto-3-deoxy-D-manno-octulosonate cytidylyltransferase as an antibiotic candidate” (Journal of Enzyme Inhibition and Medicinal Chemistry, 2020):

What was measured:
[1] = molecular target: T1, PaKdsB (2-keto-3-deoxy-D-manno-octulosonate cytidylyltransferase) (Pseudomonas aeruginosa, UniProt Q9HZM5); experiment: malachite green enzyme assay (IC50), inhibition kinetics; increased thermostability; type: biochemical
T1 construct: gene kdsB; native KdsB with N-terminal tag MHHHHHH EFSQQDSD
T1 sequence (Q9HZM5 1-254): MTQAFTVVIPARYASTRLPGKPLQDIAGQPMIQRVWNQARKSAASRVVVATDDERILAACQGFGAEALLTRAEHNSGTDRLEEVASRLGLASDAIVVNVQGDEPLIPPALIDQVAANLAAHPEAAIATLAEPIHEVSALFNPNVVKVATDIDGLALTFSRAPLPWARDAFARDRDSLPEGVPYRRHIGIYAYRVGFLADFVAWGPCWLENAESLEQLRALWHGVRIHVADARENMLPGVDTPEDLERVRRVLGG
Description: malachite green enzyme assay (IC50), inhibition kinetics; increased thermostability on PaKdsB (2-keto-3-deoxy-D-manno-octulosonate cytidylyltransferase) | The IC50 value determined from the dose-dependent inhibitory curve of Rose Bengal

[2] = molecular target: T2, BtKdsB (2-keto-3-deoxy-D-manno-octulosonate cytidylyltransferase) (Burkholderia thailandensis, UniProt Q2T0K3); experiment: biochemical
T2 construct: gene kdsB; native KdsB with N-terminal tag MHHHHHH GGGGG

[3] = system: O=C(O)C(=O)C[C@@H](O)[C@@H](O)[C@H](O)[C@H](O)CO; experiment: purified protein
[4] = system: Nc1ccn([C@@H]2O[C@H](COP(=O)(O)OP(=O)(O)OP(=O)(O)O)[C@@H](O)[C@H]2O)c(=O)n1; experiment: purified protein
[5] = substrate: Nc1ccn([C@@H]2O[C@H](COP(=O)(O)OP(=O)(O)OP(=O)(O)O)[C@@H](O)[C@H]2O)c(=O)n1; experiment: steady-state kinetics (Km), malachite green assay; type: biochemical, Pseudomonas aeruginosa; conditions: KDO ([…]), Mg2+ ([…] MgCl2) nucleotide binding site
[6] = substrate: O=C(O)C(=O)C[C@@H](O)[C@@H](O)[C@H](O)[C@H](O)CO; experiment: steady-state kinetics (Km), malachite green assay; type: biochemical, Pseudomonas aeruginosa; conditions: CTP ([…]), Mg2+ ([…] MgCl2) substrate binding site

T2 sequence (Q2T0K3 whole entry): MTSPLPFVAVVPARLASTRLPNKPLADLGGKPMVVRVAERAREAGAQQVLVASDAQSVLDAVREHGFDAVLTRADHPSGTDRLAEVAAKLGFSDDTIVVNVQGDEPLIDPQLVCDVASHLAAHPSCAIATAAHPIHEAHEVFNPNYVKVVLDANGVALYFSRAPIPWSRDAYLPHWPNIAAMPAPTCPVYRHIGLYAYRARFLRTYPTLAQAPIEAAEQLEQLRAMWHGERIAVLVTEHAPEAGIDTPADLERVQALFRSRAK

Molecule: O=C1OC2(c3cc(I)c(O)c(I)c3Oc3c2cc(I)c(O)c3I)c2c(Cl)c(Cl)c(Cl)c(Cl)c21 [Rose Bengal]
- IC50 [1]: 14.7 µM
- IC50 [2]: 7.24 µM

Molecule: BtKdsB (2-keto-3-deoxy-D-manno-octulosonate cytidylyltransferase) (Burkholderia thailandensis E264)
- Km [3]: 56 ± 11 µM
- kcat [3]: 0.116 ± 0.0062 s⁻¹
- Km [4]: 123.9 ± 34 µM
- kcat [4]: 0.142 ± 0.0193 s⁻¹

B1: PaKdsB (2-keto-3-deoxy-D-manno-octulosonate cytidylyltransferase) (Pseudomonas aeruginosa PAO1) (protein)
chain: T1 sequence (Q9HZM5 1-254)
notes: native KdsB with N-terminal tag MHHHHHH EFSQQDSD
- Km [5]: 98.3 ± 30 µM
- kcat [5]: 0.132 ± 0.0184 s⁻¹
- Km [6]: 61 ± 11 µM
- kcat [6]: 0.0758 ± 0.00383 s⁻¹
